From IntAct's records for PubMed 32911434 come the findings set out here.

Sequences and labels used below:
B1: Nuclear factor erythroid 2-related factor 2 (Homo sapiens), Q16236 (parent)
chain: MMDLELPPPGLPSQQDMDLIDILWRQDIDLGVSREVFDFSQRRKEYELEKQKKLEKERQEQLQKEQEKAFFAQLQLDEETGEFLPIQPAQHIQSETSGSANYSQVAHIPKSDALYFDDCMQLLAQTFPFVDDNEVSSATFQSLVPDIPGHIESPVFIATNQAQSPETSVAQVAPVDLDGMQQDIEQVWEELLSIPELQCLNIENDKLVETTMVPSPEAKLTEVDNYHFYSSIPSMEKEVGNCSPHFLNAFEDSFSSILSTEDPNQLTVNSLNSDATVNTDFGDEFYSAFIAEPSISNSMPSPATLSHSLSELLNGPIDVSDLSLCKAFNQNHPESTAEFNDSDSGISLNTSPSVASPEHSVESSSYGDTLLGLSDSEVEELDSAPGSVKQNGPKTPVHSSGDMVQPLSPSQGQSTHVHDAQCENTPEKELPVSPGHRKTPFTKDKHSSRLEAHLTRDELRAKALHIPFPVEKIINLPVVDFNEMMSKEQFNEAQLALIRDIRRRGKNKVAAQNCRKRKLENIVELEQDLDHLKDEKEKLLKEKGENDKSLHLLKKQLSTLYLEVFSMLRDEDGKPYSPSEYSLQQTRDGNVFLVPKSKKPDVKKN
partner: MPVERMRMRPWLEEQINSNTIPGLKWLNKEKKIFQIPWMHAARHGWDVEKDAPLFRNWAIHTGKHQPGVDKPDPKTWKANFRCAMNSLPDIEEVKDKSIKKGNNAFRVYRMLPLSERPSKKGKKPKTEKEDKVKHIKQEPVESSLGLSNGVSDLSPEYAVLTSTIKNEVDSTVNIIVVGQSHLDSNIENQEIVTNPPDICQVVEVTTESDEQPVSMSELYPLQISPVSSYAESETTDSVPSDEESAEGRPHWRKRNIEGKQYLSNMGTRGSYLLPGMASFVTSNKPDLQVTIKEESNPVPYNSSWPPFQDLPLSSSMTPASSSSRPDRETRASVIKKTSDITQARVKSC
B2: Nuclear factor erythroid 2-related factor 2 (Homo sapiens), Q16236 (parent)
chain: B1 chain
B3: Nuclear factor erythroid 2-related factor 2 (Homo sapiens), Q16236 (parent)
chain: B1 chain
partner: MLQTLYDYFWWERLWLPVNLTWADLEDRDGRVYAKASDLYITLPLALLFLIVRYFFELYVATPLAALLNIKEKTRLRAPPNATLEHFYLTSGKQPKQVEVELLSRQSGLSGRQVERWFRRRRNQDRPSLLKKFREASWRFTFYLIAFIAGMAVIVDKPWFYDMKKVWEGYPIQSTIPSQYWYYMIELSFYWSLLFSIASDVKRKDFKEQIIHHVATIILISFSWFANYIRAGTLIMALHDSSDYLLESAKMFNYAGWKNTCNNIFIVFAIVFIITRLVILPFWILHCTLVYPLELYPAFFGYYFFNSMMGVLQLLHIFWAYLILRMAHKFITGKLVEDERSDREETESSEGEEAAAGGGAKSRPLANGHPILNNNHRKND

In the first assay the parent is B1. To be noted: with irf2_human IRF2, P14316.
As to S408A, the “effect of a mutation on the interaction” value was “decreasing interaction strength”.
On to Y576E, for which the “effect of a mutation on the interaction” value was “decreasing interaction strength”.
On to Y576F, for which the “effect of a mutation on the interaction” value is “decreasing interaction strength”.
Regarding T559D, the “effect of a mutation on the interaction” value is on record as “decreasing interaction strength”.

Another assay covers variants of B2. To be noted: with brpf3_human BRPF3, Q9ULD4.
brpf3_human BRPF3, Q9ULD4, sequence (Q9ULD4 whole entry): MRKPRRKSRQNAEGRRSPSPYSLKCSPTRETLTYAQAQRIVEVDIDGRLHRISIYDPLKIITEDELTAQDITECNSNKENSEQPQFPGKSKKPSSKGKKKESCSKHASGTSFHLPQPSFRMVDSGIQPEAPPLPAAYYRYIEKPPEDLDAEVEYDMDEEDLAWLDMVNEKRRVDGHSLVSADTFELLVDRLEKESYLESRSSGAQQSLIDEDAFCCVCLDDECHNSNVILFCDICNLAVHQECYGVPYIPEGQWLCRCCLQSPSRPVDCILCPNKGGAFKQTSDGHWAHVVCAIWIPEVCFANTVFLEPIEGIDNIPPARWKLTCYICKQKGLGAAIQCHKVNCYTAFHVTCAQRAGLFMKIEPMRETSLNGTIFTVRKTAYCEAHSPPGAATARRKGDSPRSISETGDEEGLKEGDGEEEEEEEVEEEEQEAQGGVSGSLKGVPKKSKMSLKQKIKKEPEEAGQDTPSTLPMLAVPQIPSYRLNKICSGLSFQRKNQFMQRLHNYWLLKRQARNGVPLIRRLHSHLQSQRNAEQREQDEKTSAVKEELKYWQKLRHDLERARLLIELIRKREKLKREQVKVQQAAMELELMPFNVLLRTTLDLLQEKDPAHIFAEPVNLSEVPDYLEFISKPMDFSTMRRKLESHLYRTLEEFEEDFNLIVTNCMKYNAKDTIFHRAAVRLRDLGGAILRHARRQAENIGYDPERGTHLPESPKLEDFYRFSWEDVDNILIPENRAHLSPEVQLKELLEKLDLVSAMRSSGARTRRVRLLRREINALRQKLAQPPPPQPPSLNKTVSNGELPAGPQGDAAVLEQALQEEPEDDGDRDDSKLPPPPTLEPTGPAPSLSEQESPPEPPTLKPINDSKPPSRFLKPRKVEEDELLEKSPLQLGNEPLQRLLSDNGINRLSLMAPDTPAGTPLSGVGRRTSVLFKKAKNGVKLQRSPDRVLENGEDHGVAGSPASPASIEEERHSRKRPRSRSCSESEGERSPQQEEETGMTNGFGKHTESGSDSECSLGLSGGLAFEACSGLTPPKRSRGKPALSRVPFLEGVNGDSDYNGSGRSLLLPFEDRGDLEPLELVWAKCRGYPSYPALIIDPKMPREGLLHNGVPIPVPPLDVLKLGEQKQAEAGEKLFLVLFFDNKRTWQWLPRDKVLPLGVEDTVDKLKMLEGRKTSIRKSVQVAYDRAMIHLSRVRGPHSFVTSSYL
With Y576E, the “effect of a mutation on the interaction” value is on record as “decreasing interaction strength”.
Consider Y576F, for which the “effect of a mutation on the interaction” value was “decreasing interaction strength”.
The same measure, in the same setting: for T559D the value was “decreasing interaction strength”; for S408A, “decreasing interaction strength”.

Another assay covers variants of B2. The settings on record: with ima1_human KPNA2, P52292.
On to Y576E, for which the “effect of a mutation on the interaction” value is “decreasing interaction strength”.
As for T559D, the “effect of a mutation on the interaction” value is on record as “decreasing interaction strength”.

Variants of B2 are the subject of another assay. To be noted: with tf65_human RELA.
Take S40D: the “effect of a mutation on the interaction” value is “increasing interaction strength”.

The variants in another assay derive from B2. The settings on record: with apex1_human APEX1, P27695.
apex1_human APEX1, P27695, sequence (P27695 whole entry): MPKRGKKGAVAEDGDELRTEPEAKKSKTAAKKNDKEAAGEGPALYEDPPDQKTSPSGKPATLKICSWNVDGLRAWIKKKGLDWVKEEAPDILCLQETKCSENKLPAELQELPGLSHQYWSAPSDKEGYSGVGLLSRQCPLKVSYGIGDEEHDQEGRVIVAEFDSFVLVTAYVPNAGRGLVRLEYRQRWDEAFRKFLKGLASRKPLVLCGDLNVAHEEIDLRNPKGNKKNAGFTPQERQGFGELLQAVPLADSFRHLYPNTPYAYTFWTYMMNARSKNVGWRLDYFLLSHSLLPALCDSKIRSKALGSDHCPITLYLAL
As for S40D, the “effect of a mutation on the interaction” value is given as “increasing interaction strength”.

Variants of B3 are the subject of another assay. To be noted: with cers2_human CERS2, Q96G23.
On to Y576E, for which the “effect of a mutation on the interaction” value is “increasing interaction strength”.
